This note sets out measurements from the domain aggregation screens of Martell et al. (2025).

The nature of the data set: soluble fraction after stress (log2 fold change); higher = more stays soluble; pooled small domains, quantitative proteomics. The settings on record: stress: 50 degC. A digest of the protocol: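 Each library was heated to 50°C as a stress step. The libraries, made up of small protein domains, were pooled and analysed at high throughput by quantitative proteomics. The reported value is the base-two logarithm of the fold change in each protein's soluble amount after stress, taken as a measure of aggregation propensity. The higher the value, the more protein stays in solution.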
As for “HMQQSVSSLVRRYMLQTIPGINFSLKSTALALNMSDRTLQRKLLSENTSYQIILDDVRKELAIKYLKE”, the “soluble fraction (log2)” value was -3.19.
Regarding “HMQQVIQSGQKVQLMATDGSFQVSAEGVALKNGSVGEVIGVRMPSGRVISGVVSASGAVEVR”, the “soluble fraction (log2)” value came out at 0.146.
Then “HMQQVLGDVNEDDKVDFLDAIVVLRHDAEIIQLTDNQMKAAEVNKDGKVDFLDAIMILRYDAEIIGS”, with -0.0952.
With “HMQRDDMQIDRLIQIVFLLLSRNNLTAKQLAEELGVSTRTIYRDINILSVAGIPITSQKGYGGGLSLLQG”, the “soluble fraction (log2)” value was -0.62.
“HMQRDELRYDQFLTALQNKEFTQLNVRFDDYTYLVTGTFQSGRPFSTRGPVSEEFIRLIESSGVQVTWLPM”: the “soluble fraction (log2)” value was -0.577.
“HMQRDERYVYHTVLAGETIYSLSRKFNVTMDELLESNPALRSGVLTTGSEIRVLKAQMAQNFD”: the “soluble fraction (log2)” value is -0.376.
Then “HMQRQGTVATQQTPLNIRSQPSLSAQVIGQAPKGATVAILGESGDWYQIRYQNITGYSSKQYI”, with 0.145; and “HMQRSVEDVFVQLRNGMDTYDMTQIEDALRILHGMELSTAQRDLLDKVQEAYNDLEYETGAALLAGFERIK”, with 0.0317; and “HMQRYFINEPVPEDQRLVLPKDIAHHLVDVLRAEQNDELEVALNDQKVYLARLISLNPATVELQSDLG”, with 0.266.
Consider “HMQRYFLEEAYQPSEKFELSAEAFHHIVHVMRMKPKDRVYLAFSDQQVIIAEITEITEEKVYLTEIEKEE”, for which the “soluble fraction (log2)” value was -0.0978.
With “HMQRYYDVLGLQKGVSPEELKKTYRELSKKYHPDAHHNSPLRDLAEAKFKEINEAYEKIKEFLDNNF”, the “soluble fraction (log2)” value was 0.15.
Then “HMQSAKLSYSDFMQKVNAGDVVSVKIQGPKISGVTTGGGKFMTYAPEDPTLVSTLMQKKVEVMAEP”, with 0.178; and “HMQSAMALTKDLIEQQGKYYHRGQPFTGVGFAKNKKGKFVTEEPFKNGLLHGKRVNYDHNGHVLAREK”, with 0.264; and “HMQSEESTHIGERMLNQALRAMHVEPSAVKEKQWEKLIRDYSVKNKQDILTDIGLGKRQSVMVAHQLLAI”, with 0.0574.
Turning to “HMQSEISRIGRILKERRLQLGYTQEYAAEKAGISYSYYTKIERGQQLPSLEVAMVLSKTFSLSMDRWL”, the “soluble fraction (log2)” value was -4.77.
As for “HMQSFIEELLPVVDNFERSLAVVDPSDEIKNFLKGYEMIYNQLMEVLKSQGVEVIKTEGEEFDPNFHQA”, the “soluble fraction (log2)” value amounted to 0.0366.
Then “HMQSHIVPDVKSQHIAQAKALLESKQMKAVVIDSNFVKGLPAGIVLDQTPIGGARVKENRTIYLTINTL”, with -0.557.
Then “HMQSMEIDENEIPSIDKLSEYIEYFKRIYNALFDDKQLAITNIDVLERHFANNFNTLRFKMDE”, with -0.0595; and “HMQSNDAGELEAVVKGIIDANPKVVADYLAGNQKVVSFFVGQAMKATKGKANPKMVSEILGKLL”, with 0.00348.
Regarding “HMQSQIAQLYNPLLGYVKKRINSREDAEDLTQDIFLKLSKSNKDGVDNLKSWLYTIAKNTITDYYRKKKII”, the “soluble fraction (log2)” value was 0.15.
In the case of “HMQSREISYSDFVASVERGEVATVILDGENIRFKGGDNVEYVTVRPADTNVTDLLIENQVVVRAEK”, the “soluble fraction (log2)” value is 0.155.
Turning to “HMQSTVSTHQKTLALDTAQSGIPVFPVSSTHKRPLTDHGYKDATADADAVRKIWQQFPSAFV”, the “soluble fraction (log2)” value stood at 0.0922.
Then “HMQSVKTQPLRDWLLAHFDKPYPDDEDKVRLAEASGMTRAQVGNWFINARVRTWRPMVLDLGEEIERESV”, with -0.649; and “HMQTEFVISSGEQPKRLDVFLLQREPYLSRAALQRMIAAGWVRVNNHLAKSSQRIKAGDVIVFD”, with -1.41; and “HMQTFGTMIAALRKEQGMTQLELAEKMGVTDKAVSKWERDLSFPDVNSLPKLAEIFHVSVDEL”, with -0.229.
Then “HMQTLGADLRALRKARGLTLTDMAETLGRSVGWLSQVERDLSEPSITDLRHMARTLGVSVSMLFS”, with -1.41.
On to “HMQTLQNNLKQIRSRVGLTQGELASRAGISRQAYSTLESGNANPSTEVSLRLAEALNERIESLFFLANQ”, for which the “soluble fraction (log2)” value is -0.275.
Take “HMQTSETVYTTDKVNVRAGADTSSDKLGSVEKGTSLTRTGTDGDWSIIDYNGTTGYIKSEYLSATAPE”: the “soluble fraction (log2)” value is 0.133.
For the sequence “HMQTTKTGTITASSLYVRSGASTSHKVLGTVSKGKTVQIKDTQDGWHKISYNGDHGWVSGKYVSTT”, the “soluble fraction (log2)” value was no less than 0.62.
On to “HMQTTVHLSPEEMVIMNALKQESPIDLPILRAQVEMSNKLWDTSMKNLSKLGQLKVEKIGEQVSVSLI”, for which the “soluble fraction (log2)” value is -0.257.
Turning to “HMQVAPDLMQRLTSQGHVDEKLSDALVHARQITNFEGRRRQMQFIGKLMRKLSEESIEAVKDALNEQRM”, the “soluble fraction (log2)” value is -0.264.
“HMQVDENNINKRIDKYLSENTEYSRSTIQKMIDNGNITVNSKPTKSSYKLELNDIITIDNNFKE”: the “soluble fraction (log2)” value was 0.369.
On to “HMQVEYTRGELIQDLEGGKIVYAGISPSRETPTGEVNFILDSGLTRTLYVTDVSEIEQLLISYDIDPEVKK”, for which the “soluble fraction (log2)” value was -0.0036.
As for “HMQVFDSNEIDEVVKKVIENNPQAVADFKKGKSNALQFLAGQVMRETKGRFNPNVVQERIRLLLT”, the “soluble fraction (log2)” value amounted to 0.458.
Then “HMQVLLTRREKEILKLIAEGLTSAEIGKRLFISTTTVDTHRKHLLEKLKAGNTAILIKTAVQLDLI”, with -1.26; and “HMQVPWYQRLKEKRLEYGVSQNKLATHIGISRQYMSEIETGKVTPSDSLQATLFDILEQFNPDA”, with -0.363; and “HMQVRVERSRDKVVISGVNYYIHPVRKGETVYSIARAYGITTQDLVRENPSAAEGLKEGQSIRIPERLVD”, with 0.0927.
In the case of “HMQVSDEGPIKAILQEVLDKSPTQLADYASGKVKLRQYFFGEAMKALKGKANPQVINKLLDEMLPPVAA”, the “soluble fraction (log2)” value came to 0.079.
Then “HMQVSDVTELRTILEKVITENESVATEFKEGKDAAMNFLVGQGMKATRGAADPALLKEIITGIL”, with 0.0889.
In the case of “HMQVSITGYLGGEKIGLFDDAKFKALAAKQGIAIDYRKAGSPAMMDADRKGMDYLFPSSRAAVEYGNAKGV”, the “soluble fraction (log2)” value was -0.009.
Regarding “HMQVTDTGTIEGEIDKVLAANPDRVTEYHDGKEKILGWFVGQVMQTTKGKANPQMVNQLFLEKLK”, the “soluble fraction (log2)” value is 0.142.
Then “HMQVTPQVLRLLDVLGDKELSLRQIAEALGLSDRKNIMRNYVVPALDSGRVVRTVPNKPNSRFQKYRK”, with -0.404; and “HMQYDALVLNLLQEKNLTSESLKDAQRAFAKSHNLSTLPSKSQILQAYFQLLEQGKIEKNPDFELLL”, with -0.108; and “HMQYFDIETEIQKFIKSENNLSDFDKETLQSFLYQLSKGSPEENTAKKVVDILNKFLPLTTAIINMIKALT”, with 0.168.
Then “HMQYYITKIANYDQVSPNLLVRTAEGQYMVKTNADILDTDVTKLTEEEIRKDWGYLFENGFSELV”, with -0.814; and “HMRAAEPTTDAQRDRRRRIVLTAMTMLQERGYDEIQMRDVAQQAGVALGTLYRYFPSKEQLFAHVLVE”, with -0.599; and “HMRAAFEHLTIGQTVSGLVKSQARGVSLVEIEGQTVAMRLPQPVAVGDTLRLRFAGHMPQPVFLLDT”, with -0.132.
Then “HMRADYVGGLDPAGDNFLALRTGPGSGYAMILPMGPGTFVTVLRRNGKWLLVELEDGTRGWAYGSYILG”, with -2.84.
In the case of “HMRAGALTTLTERERNVFDLVVTGHSNPEIARQLSIADVTVKTHVGHILSKLGVRDRVHLVIWAHRQGLAD”, the “soluble fraction (log2)” value is -2.61.
Take “HMRAMWENLFFQYKEGFLPEEYYKQGIATGIRLAGPKFVEMNIPMQKEFEDEVHRLLAEHEKSVK”: the “soluble fraction (log2)” value was -0.748.
In the case of “HMRASVTYVVQVNGKLRGKLEVAPDIDPEELKKLALEVENVKHSLQGWTVKKVIVIPGKMVSIAAGK”, the “soluble fraction (log2)” value was determined as 0.0764.
For the sequence “HMRAVEGKRLKRLLRTNLIAIERDQILQYPLRKRPLAIVTRAVRATNPDAVIVNDAGDDVFARALDVLLAS”, the “soluble fraction (log2)” value was -1.34.
In the case of “HMRDAKSQLQEALQKSGRLPEYELVSVEGPPHAPVFTYRVRIDGAVVGEGQGASKQAAQQAAAQSALKSG”, the “soluble fraction (log2)” value is 0.145.
Then “HMRDDAIQQGREIVERELHRLDLAYTTLTDVLAKLEYEKLDDLYAAVGFGIRSPHSVAAAALQVERDKA”, with -0.569.
Turning to “HMRDGHEQLQGVLSAIKFHQANFLIGVLDDGTTVKGNMLSPQVGLEYTFRGRRERHPRWGEQFAFMDYRV”, the “soluble fraction (log2)” value is -2.76.
In the case of “HMRDIGKNIRYYREKKGYSQEQLAQLLFVTRQTVSNYETSRSRPDVETLVKLAGLLDIDVTDLIYGPR”, the “soluble fraction (log2)” value was -0.651.
For the sequence “HMRDKSITFSEFVKLLDEGQIQKVTLTGNEILGTQKSGDKFRTYAPPQYEGLGNKLVERSVEVTAKE”, the “soluble fraction (log2)” value turned out to be 0.207.
Take “HMRDLVTYVVQVNGKLRGKLEVSPSTDDNSLKTMALELENVQRALEGLSVKKVIVIPGKMVSIAAG”: the “soluble fraction (log2)” value came out at 0.167.
Then “HMRDVVVVPDLSGLTQMEALSKLDAESLNIGEINYGVSEMPEGVIFKQDPVYGTELMKGDTVDIFISGR”, with -0.527.
On to “HMRDYKTHLQEVLQSKGEVNIWYKLIDEKGPDHNKKFVMQVGIDSKILGFGEGKSKKEAEQVAARKALDNI”, for which the “soluble fraction (log2)” value is -0.118.
Then “HMREGIQLGDPVRVIRDPLFGKIGAVSGLPSELRAIPTESEVRVLEVRFPDGTTTVVPRANIEVIEG”, with 0.364.
On to “HMREIEVNYAAGDSVRVIDGPLAGFIGVVSSVEPDKNKVNVTVSMFGRETPVELELDQVETLD”, for which the “soluble fraction (log2)” value stood at 0.159.
In the case of “HMREISSDELHSLFSADQRGDLVINETTRLSIEKLYALHTPEEREAKVNELSGVLPSEAHRQLVHFLDYFD”, the “soluble fraction (log2)” value is -1.26.
Take “HMREITVEELYELEGIRIVGTIPGISAWVAESGRQMVFLVGQKVKGHDLLEVGESRVVLRKGDSVVNVLL”: the “soluble fraction (log2)” value is -0.0622.
Consider “HMREKPRETFQRIAEKVGQTLRKGPVRVQQMDLLFSESREQVMEVLRAMAESGEIRIQDDTLHWNGHT”, for which the “soluble fraction (log2)” value was 0.311.
Then “HMRELPKRPEIRYAAGDRVFHKAFGNGLVKQVAQTAGGARVTVDFGEGKGVKTFAGDAPMIKI”, with 0.342; and “HMRELSDFEKLLFTTTLERKMINLAMLLTRSNKADSKDLIQDSYLKAIENQVQFNGNNIDAWVITILKNTF”, with 0.139.
In the case of “HMRENAARNRNVNLDIGETLRVDAWSPERRARVQYRGAAWDVELAPNAPATVGEFRIVEVRGNVLVVTP”, the “soluble fraction (log2)” value turned out to be 0.0231.
